Experimental data: article PMC3744876
Positions count from the first letter of the chain named. Where two headings read alike, the source gives them in different places.

T1: RIG-I CTD (human, UniProt O95786 792-925)
T1 sequence: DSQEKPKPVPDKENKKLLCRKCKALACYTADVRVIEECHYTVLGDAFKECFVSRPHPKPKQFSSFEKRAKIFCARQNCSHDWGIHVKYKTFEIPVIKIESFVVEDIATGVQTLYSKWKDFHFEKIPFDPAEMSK

T2: RIG-I CTD H847A/K858A (human, UniProt O95786 792-925, H847A;K858A)
T2 sequence: T1 sequence with H56A, K67A

T3: RIG-I CTD H847A (human, UniProt O95786 792-925, H847A)
T3 sequence: T1 sequence with H56A

B1: 5'-ppp-dsRNA 12-mer (dsRNA)
RNA 1: GACGCUAGCGUC
RNA 2: GACGCUAGCGUC
modifications: 5'-triphosphate on both strands
B2: 5'-ppp-dsRNA 12-mer, 32pCp-labelled (dsRNA)
RNA 1: GACGCUAGCGUC
RNA 2: GACGCUAGCGUC
modifications: 5'-triphosphate; labelled strand (ppp-11-mer S1 + pCp) carries an additional 3'-phosphate

Tests used:
RIG-I CTD [1] = target: T1, RIG-I CTD; test: ITC
RIG-I CTD H847A/K858A = target: T2, RIG-I CTD H847A/K858A; test: ITC
RIG-I CTD H847A [2] = target: T3, RIG-I CTD H847A; test: ITC
RIG-I CTD [3] = target: T1, RIG-I CTD; test: ITC; remark: listed apart in the source
RIG-I CTD H847A [4] = target: T3, RIG-I CTD H847A; test: EMSA

Binder	Kd (RIG-I CTD [1]) [nM]	Kd (RIG-I CTD H847A/K858A) [nM]	Kd (RIG-I CTD H847A [2]) [nM]	Kd (RIG-I CTD [3]) [nM]	binding signal (RIG-I CTD H847A [4]) [fold weaker than WT]
B1	29.2	649	162	215	
B2					~10
